One assay deals with ICAM-1/Fc (UniProt P05362). Description: cell-based or functional assay.
The next assay addresses VCAM-1/Fc (UniProt P19320). Description: cell-based or functional assay.
Assay [1] deals with T1, His3E9-tagged β2 integrin cytoplasmic tail protein (UniProt P05107 724-769, not fully specified).
T1 construct: domain: cytoplasmic tail; Expressed in E. coli (pET15b) or Saccharomyces; immobilized on Scintistrip plates; also called β2 C-tail; β2 integrin C-tail; not shown: His3E9 tag
T1 chain (looked up): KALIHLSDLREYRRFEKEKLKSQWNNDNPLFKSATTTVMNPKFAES
Kind of assay: competition binding assay, competitor at 0.001 to 4 µM against iodinated IRP-1 on immobilized β2 C-tail. How it is done:
(§1) The integrin C-tails were immobilized onto 96-well microtiter Scintistrip™ (Wallac) plates at concentrations between […] in volumes of 50-100 μl bicarbonate, pH 9.6, per well and were incubated at 4° C. overnight. Plates were dried and blocked in 350 μl/well sterile-filtered 1-2% Bovine Serum Albumin (BSA) dissolved in binding assay buffer and were incubated at room temperature for 1-2 hours. The wells were washed 3 times in binding assay buffer and dried just prior to addition of IRPs.
The binding assay format was either a competition/inhibition binding assay or a saturation binding assay. In the competition binding assay, radiolabeled IRPs were diluted to 25-100 nM in binding assay buffer with one potential modulator of binding (unlabelled IRPs, soluble C-tails or non-specific control polypeptides such as BSA). The assay was initiated with addition of 100 μl labeled IRPs/potential modulator solution to the blocked Scintistrip® wells (50,000-200,000 cpm/well), then incubated one hour at room temperature (22-24° C.) and stopped by rapidly washing in binding assay buffer three to five times. The saturation binding assays were performed similarly, except that a constant 1:20 ratio of radiolabeled:unlabeled IRPs were tested over a total concentration range of 0.01-30 μM. The plates were dried and scintillation was measured on a Wallac Model 1450 liquid scintillation counter after the detectors were normalized. Interwell crosstalk was corrected for with a test Scintistrip™ plate, containing in the G11, 100 μl of 25-100 nM radiolabeled IRP captured by anti-IRP monoclonal antibody 200A coated in the well at 20 μg/ml in bicarbonate buffer. The incubation times and conditions for the test plate were identical to the binding assay above.

For assay [2], the target named is T2, Bovine Serum Albumin (BSA) (bovine, UniProt P02769 25-607).
T2 construct: also called control peptide
Description: radiolabelled IRP-1 on BSA-blocked Scintistrip wells. Here is the method:
as §1
The binding assay format was either a competition/inhibition binding assay or a saturation binding assay. In the competition binding assay, radiolabeled IRPs were diluted to 25-100 nM in binding assay buffer with one potential modulator of binding (unlabelled IRPs, soluble C-tails or non-specific control polypeptides such as BSA). […] The plates were dried and scintillation was measured on a Wallac Model 1450 liquid scintillation counter after the detectors were normalized. […]
Binding was measured as counts of radiolabeled IRPs found in C-tail-coated wells above counts found in BSA-coated wells. Specific binding was assessed as counts found in C-tail-coated wells which were reduced with added unlabelled IRPs or soluble C-tails.

Where only a bound is given, the exact number is not on record here.

ICAM-1/Fc, sequence (P05362 28-480 limits assumed): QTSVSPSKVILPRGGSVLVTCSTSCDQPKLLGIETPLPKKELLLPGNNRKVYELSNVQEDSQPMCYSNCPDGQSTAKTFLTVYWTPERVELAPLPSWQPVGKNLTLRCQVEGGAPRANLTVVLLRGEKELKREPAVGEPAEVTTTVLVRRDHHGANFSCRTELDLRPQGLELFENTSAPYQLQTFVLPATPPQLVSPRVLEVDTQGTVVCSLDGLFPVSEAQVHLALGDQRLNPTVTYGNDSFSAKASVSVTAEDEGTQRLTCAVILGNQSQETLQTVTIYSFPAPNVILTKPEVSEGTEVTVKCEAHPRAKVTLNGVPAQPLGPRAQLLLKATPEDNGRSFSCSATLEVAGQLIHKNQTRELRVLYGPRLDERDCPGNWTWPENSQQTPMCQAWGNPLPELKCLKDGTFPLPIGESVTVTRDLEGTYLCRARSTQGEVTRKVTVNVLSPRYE
VCAM-1/Fc, sequence (P19320 25-698 limits assumed): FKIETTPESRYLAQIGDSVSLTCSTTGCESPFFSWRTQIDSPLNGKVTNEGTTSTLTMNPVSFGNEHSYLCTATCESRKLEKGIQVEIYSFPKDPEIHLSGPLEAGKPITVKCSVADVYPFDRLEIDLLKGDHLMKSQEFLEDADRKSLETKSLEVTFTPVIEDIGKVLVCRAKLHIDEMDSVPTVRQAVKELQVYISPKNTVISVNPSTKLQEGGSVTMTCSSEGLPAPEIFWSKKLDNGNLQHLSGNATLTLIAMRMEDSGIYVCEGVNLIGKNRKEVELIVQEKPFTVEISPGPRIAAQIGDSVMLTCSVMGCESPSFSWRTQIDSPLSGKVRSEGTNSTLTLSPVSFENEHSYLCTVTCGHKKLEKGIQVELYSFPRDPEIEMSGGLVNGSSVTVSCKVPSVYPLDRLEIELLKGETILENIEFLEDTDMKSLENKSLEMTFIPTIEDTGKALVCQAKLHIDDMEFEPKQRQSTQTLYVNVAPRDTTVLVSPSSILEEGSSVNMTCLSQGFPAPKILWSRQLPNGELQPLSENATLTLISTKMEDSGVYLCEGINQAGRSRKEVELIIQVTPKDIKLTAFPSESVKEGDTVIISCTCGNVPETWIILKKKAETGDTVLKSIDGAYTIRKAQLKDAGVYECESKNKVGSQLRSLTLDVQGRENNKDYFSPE
T2 sequence (P02769 25-607 limits assumed): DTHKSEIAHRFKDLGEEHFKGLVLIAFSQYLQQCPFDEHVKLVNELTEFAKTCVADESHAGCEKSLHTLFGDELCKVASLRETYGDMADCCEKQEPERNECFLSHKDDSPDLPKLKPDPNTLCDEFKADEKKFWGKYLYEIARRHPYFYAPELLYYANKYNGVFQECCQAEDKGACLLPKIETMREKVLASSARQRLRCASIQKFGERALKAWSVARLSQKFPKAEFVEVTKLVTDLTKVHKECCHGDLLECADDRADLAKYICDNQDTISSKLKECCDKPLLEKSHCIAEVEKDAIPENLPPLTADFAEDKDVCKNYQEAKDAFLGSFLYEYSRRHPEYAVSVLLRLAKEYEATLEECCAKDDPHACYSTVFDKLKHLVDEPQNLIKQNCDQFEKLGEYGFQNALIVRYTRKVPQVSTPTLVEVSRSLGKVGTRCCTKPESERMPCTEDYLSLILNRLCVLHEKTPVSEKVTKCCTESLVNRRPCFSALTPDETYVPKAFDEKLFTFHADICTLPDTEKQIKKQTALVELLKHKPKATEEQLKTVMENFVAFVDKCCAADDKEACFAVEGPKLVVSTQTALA

For the molecule “LFA-1 (CD11a/CD18) on JY, JY-8 or transfected COS cells (from UniProt P20701 26-1170; P05107 23-769) (receptor)”, in the assay with ICAM-1/Fc, the decrease in ICAM-1 adhesion of COS cells co-transfected with CD11a/CD18 and 3′HA B2-1, 5′HA B2-1, B2-1 PH or IRP-1 PH, 72 hours post-transfection, against vector control was 50%; the decrease in static adhesion to ICAM-1 of JY-8 transfectants overexpressing IRP-1 against GFP control (basal and IL-8 stimulated) was in the range of 40 to 50%; the highest flow rate at which ICAM-1 binding of JYIRP-2 cells was detected after static binding was below 7.5 dynes/cm^2; the static adhesion of JY-8 cells expressing only GFP (control) to immobilized ICAM-1, IL-8 against basal level lay within 3 to 4 fold. In the assay with ICAM-1/Fc, this molecule returned a static adhesion of JY-8 cells to ICAM-1, PMA against basal level above 4 fold and a static adhesion to ICAM-1 (basal or IL-8 induced) of JY-8 transfectants overexpressing IRP-2 against GFP transfectants of 20%.

In the assay with VCAM-1/Fc, “integrin α4β7 on JY or JY-8 cells (from UniProt P13612 34-1032; P26010 20-798) (receptor)” yielded an IL-8 stimulated adhesion to VCAM-1 of JY-8 transfectants overexpressing B2-1 of 50%; a static adhesion of JY-8 cells expressing only GFP (control) to immobilized VCAM-1, IL-8 against basal level of 2 fold; a static adhesion of JY-8 cells to VCAM-1, PMA against basal level above 4 fold; a static adhesion to VCAM-1 (IL-8 induced) of JY-8 transfectants overexpressing IRP-2 against GFP transfectants of 20%. The static adhesion to VCAM-1 of JY-8 transfectants overexpressing IRP-1, IL-8 stimulated with VCAM-1/Fc was determined as 40%.

B1: IRP-1 Sec7 domain (recombinant, soluble competitor) (other)
chain: KFNMDPKKGIQFLVENELLQNTPEEIARFLYKGEGLNKTAIGDYLGEREELNLAVLHAFVDLHEFTDLNLVQALRQFLWSFRLPGEAQKIDRMMEAFAQRYCLCNPGVFQSTDTCYVLSFAVIMLNTSLHNPNVRDKPGLERFVAMNRGINEGGDLPEELLRNLYDSIRNEPFKI
Take B1: the “percent decrease of iodinated IRP-1 binding” value (from here on “percent decrease”) in assay [1] is around 75%.

B2: His-tagged IRP-1 (HisIRP-1), expressed in E. coli (other)
chain: MEDGVYEPPDLTPEERMELENIRRRKQELLVEIQRLREELSEAMSEVEGLEANEGSKTLQRNRKMAMGRKKFNMDPKKGIQFLVENELLQNTPEEIARFLYKGEGLNKTAIGDYLGEREELNLAVLHAFVDLHEFTDLNLVQALRQFLWSFRLPGEAQKIDRMMEAFAQRYCLCNPGVFQSTDTCYVLSFAVIMLNTSLHNPNVRDKPGLERFVAMNRGINEGGDLPEELLRNLYDSIRNEPFKIPEDDGNDLTHTFFNPDREGWLLKLGGRVKTWKRRWFILTDNCLYYFEYTTDKEPRGIIPLENLSIREVDDPRKPNCFELYIPNNKGQLIKACKTEADGRVVEGNHMVYRISAPTQEEKDEWIKSIQAAVSVDPFYEMLAARKKRISVKKKQEQP
notes: also called unlabelled IRP-1; clone S3 protein; not shown: N-terminal histidine tag encoded by pET15b
Turning to B2, the “percent decrease” value in assay [1] was around 75%.

B3: iodinated IRP-1 (125I-labelled His-tagged IRP-1) (other)
chain: MEDGVYEPPDLTPEERMELENIRRRKQELLVEIQRLREELSEAMSEVEGLEANEGSKTLQRNRKMAMGRKKFNMDPKKGIQFLVENELLQNTPEEIARFLYKGEGLNKTAIGDYLGEREELNLAVLHAFVDLHEFTDLNLVQALRQFLWSFRLPGEAQKIDRMMEAFAQRYCLCNPGVFQSTDTCYVLSFAVIMLNTSLHNPNVRDKPGLERFVAMNRGINEGGDLPEELLRNLYDSIRNEPFKIPEDDGNDLTHTFFNPDREGWLLKLGGRVKTWKRRWFILTDNCLYYFEYTTDKEPRGIIPLENLSIREVDDPRKPNCFELYIPNNKGQLIKACKTEADGRVVEGNHMVYRISAPTQEEKDEWIKSIQAAVSVDPFYEMLAARKKRISVKKKQEQP
modifications: radiolabeled with 125I (Iodobead or lactoperoxidase/hydrogen peroxide method); positions not given
notes: also called radiolabeled IRP-1; not shown: His tag encoded by pET15b (non-kemptide-tagged)
For the molecule B3, the binding result in assay [2] is reported as “no binding”.

B4: His-tagged B2-1 (HisB2-1), expressed in E. coli (other, human, UniProt Q15438 1-398, looked up)
chain: MEEDDSYVPSDLTAEERQELENIRRRKQELLADIQRLKDEIAEVANEIENLGSTEERKNMQRNKQVAMGRKKFNMDPKKGIQFLIENDLLKNTCEDIAQFLYKGEGLNKTAIGDYLGERDEFNIQVLHAFVELHEFTDLNLVQALRQFLWSFRLPGEAQKIDRMMEAFAQRYCQCNNGVFQSTDTCYVLSFAIIMLNTSLHNPNVKDKPTVERFIAMNRGINDGGDLPEELLRNLYESIKNEPFKIPEDDGNDLTHTFFNPDREGWLLKLGGGRVKTWKRRWFILTDNCLYYFEYTTDKEPRGIIPLENLSIREVEDSKKPNCFELYIPDNKDQVIKACKTEADGRVVEGNHTVYRISAPTPEEKEEWIKCIKAAISRDPFYEMLAARKKKVSSTKRH
notes: mature; also called cytohesin-1; not shown: N-terminal histidine tag encoded by pET15b
Regarding B4, the “percent decrease” value in assay [1] is around 75%.

These data come from patent publication US20030044958A1 (ICOS, published 2003).
